# Test results: PMC9352680, “A comprehensive thermodynamic model for RNA binding by the Saccharomyces cerevisiae Pumilio protein PUF4”
# T1: PUF4 RNA-binding domain (Saccharomyces cerevisiae, UniProt P25339 537-888)
# T1 sequence: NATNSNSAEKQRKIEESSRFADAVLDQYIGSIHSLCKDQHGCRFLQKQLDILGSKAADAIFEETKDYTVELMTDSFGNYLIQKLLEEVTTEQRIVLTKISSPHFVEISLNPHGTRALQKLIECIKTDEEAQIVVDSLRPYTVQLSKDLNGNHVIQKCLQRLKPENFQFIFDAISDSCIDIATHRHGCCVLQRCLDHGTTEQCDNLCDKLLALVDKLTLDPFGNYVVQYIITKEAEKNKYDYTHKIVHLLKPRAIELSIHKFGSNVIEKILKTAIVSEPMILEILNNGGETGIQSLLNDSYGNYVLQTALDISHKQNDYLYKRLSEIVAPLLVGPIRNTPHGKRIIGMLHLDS
# Target: T1, PUF4 RNA-binding domain
# Test: Mg; RNA-MaP; 20 mM Na-HEPES pH 7.4, 30 mM KOAc, 0.75 mM MgCl2, 0.1% Tween-20, 5% glycerol, 0.1 mg/mL BSA, 2 mM DTT; 25 C; 0.0125-409.6 nM protein
# Details: tags: N-His6-TEV cleaved; C-SNAP kept, Cy3B-labelled; label: tethered on chip by stalled RNA polymerase
row,Binder,Kd [nM]
1,UCUCUUUGUAUUAUUUCUCUU (ssRNA) [Ic_S1_P4E.1_K4.1_C4.1_H4.1_A4.1_[A6T]_[T7A]_F4.1_[A9T]_T4.1],12.6
2,UCUCUUUGUAUAUAGUUCUCUU (ssRNA) [Ic_S1_P5E.1_K5.1_C5.1_H5.1_A5.1_[T6A]_[A7T]_F5.1_[T8A]_[T9G]_[A10T]_T5.1],4.66
3,UCUCUUUGUAUAGCGUCUCUU (ssRNA) [Ic_S1_P4E.1_K4.1_C4.1_H4.1_A4.1_[T7G]_F4.1_[T8C]_[A9G]_T4.1],283
4,UCUCUUUGUAUACAGUCUCUU (ssRNA) [Ic_S1_P4E.1_K4.1_C4.1_H4.1_A4.1_[T7C]_F4.1_[T8A]_[A9G]_T4.1],95.6
5,UCUCUUUGUAUACGGUCUCUU (ssRNA) [Ic_S1_P4E.1_K4.1_C4.1_H4.1_A4.1_[T7C]_F4.1_[T8G]_[A9G]_T4.1],683
6,UCUCUUUGUAAUACUCUCUCUU (ssRNA) [Ic_S1_P5E.1_K5.1_C5.1_H5.1_A5.1_[T5A]_F5.1_[T8C]_[A10C]_T5.1],642
7,UCUCUUUGUAUUUAUUCUCUU (ssRNA) [Ic_S1_P4E.1_K4.1_C4.1_H4.1_A4.1_[A6T]_F4.1_[T8A]_[A9T]_T4.1],31.8
8,UCUCUUUGUAUCACAUUCUCUU (ssRNA) [Ic_S1_P5E.1_K5.1_C5.1_H5.1_A5.1_[T6C]_F5.1_[T8C]_[T9A]_[A10T]_T5.1],106
9,UCUCUUUGUACGGUAAUCUCUU (ssRNA) [Ic_S1_P5E.1_K5.1_C5.1_H5.1_A5.1_[T5C]_[T6G]_[A7G]_F5.1_[T9A]_T5.1],16.8
10,UCUCUUUGUAAUCACCUCUCUU (ssRNA) [Ic_S1_P5E.1_K5.1_C5.1_H5.1_A5.1_[T5A]_[A7C]_F5.1_[T8A]_[T9C]_[A10C]_T5.1],1200
11,UCUCUUUGUAUCUUAGUCUCUU (ssRNA) [Ic_S1_P5E.1_K5.1_C5.1_H5.1_A5.1_[T6C]_[A7T]_F5.1_[T9A]_[A10G]_T5.1],3.71
12,UCUCUUUGUAUUUCGUCUCUU (ssRNA) [Ic_S1_P4E.1_K4.1_C4.1_H4.1_A4.1_[A6T]_F4.1_[T8C]_[A9G]_T4.1],462
13,UCUCUUUGUACAUAUUUCUCUU (ssRNA) [Ic_S1_P5E.1_K5.1_C5.1_H5.1_A5.1_[T5C]_[T6A]_[A7T]_F5.1_[T8A]_[A10T]_T5.1],5.5
14,UCUCUUUGUACAGCCAUCUCUU (ssRNA) [Ic_S1_P5E.1_K5.1_C5.1_H5.1_A5.1_[T5C]_[T6A]_[A7G]_F5.1_[T8C]_[T9C]_T5.1],316
15,UCUCUUUGUACGCAUGUCUCUU (ssRNA) [Ic_S1_P5E.1_K5.1_C5.1_H5.1_A5.1_[T5C]_[T6G]_[A7C]_F5.1_[T8A]_[A10G]_T5.1],581
16,UCUCUUUGUACCCAACUCUCUU (ssRNA) [Ic_S1_P5E.1_K5.1_C5.1_H5.1_A5.1_[T5C]_[T6C]_[A7C]_F5.1_[T8A]_[T9A]_[A10C]_T5.1],836

row,Binder,Kd [nM]
1,UCUCUUUGUAUCGGUAUCUCUU (ssRNA) [Ic_S1_P5E.1_K5.1_C5.1_H5.1_A5.1_[T6C]_[A7G]_F5.1_[T8G]_T5.1],43.9
2,UCUCUUUGUAACCGCCUCUCUU (ssRNA) [Ic_S1_P5E.1_K5.1_C5.1_H5.1_A5.1_[T5A]_[T6C]_[A7C]_F5.1_[T8G]_[T9C]_[A10C]_T5.1],2070
3,UCUCUUUGUAUAACCUCUCUU (ssRNA) [Ic_S1_P4E.1_K4.1_C4.1_H4.1_A4.1_[T7A]_F4.1_[T8C]_[A9C]_T4.1],62.8
4,UCUCUUUGUACAUUAAUCUCUU (ssRNA) [Ic_S1_P5E.1_K5.1_C5.1_H5.1_A5.1_[T5C]_[T6A]_[A7T]_F5.1_[T9A]_T5.1],0.904
5,UCUCUUUGUAUGUGUCUCUU (ssRNA) [Ic_S1_P3E.1_K3.1_C3.1_H3.1_A3.1_[A6G]_F3.1_[A8G]_T3.1],472
6,UCUCUUUGUAUUCCCUUCUCUU (ssRNA) [Ic_S1_P5E.1_K5.1_C5.1_H5.1_A5.1_[A7C]_F5.1_[T8C]_[T9C]_[A10T]_T5.1],653
7,UCUCUUUGUAUAGCCUCUCUU (ssRNA) [Ic_S1_P4E.1_K4.1_C4.1_H4.1_A4.1_[T7G]_F4.1_[T8C]_[A9C]_T4.1],108
8,UCUCUUUGUACUCAGCUCUCUU (ssRNA) [Ic_S1_P5E.1_K5.1_C5.1_H5.1_A5.1_[T5C]_[A7C]_F5.1_[T8A]_[T9G]_[A10C]_T5.1],945
9,UCUCUUUGUAUGUCACUCUCUU (ssRNA) [Ic_S1_P5E.1_K5.1_C5.1_H5.1_A5.1_[T6G]_[A7T]_F5.1_[T8C]_[T9A]_[A10C]_T5.1],132
10,UCUCUUUGUAUAUUAUCUCUU (ssRNA) [Ic_S1_P4E.1_K4.1_C4.1_H4.1_A4.1_F4.1_T4.1],0.576
11,UCUCUUUGUAAUGCAUUCUCUU (ssRNA) [Ic_S1_P5E.1_K5.1_C5.1_H5.1_A5.1_[T5A]_[A7G]_F5.1_[T8C]_[T9A]_[A10T]_T5.1],910
12,UCUCUUUGUAUACGCUCUCUU (ssRNA) [Ic_S1_P4E.1_K4.1_C4.1_H4.1_A4.1_[T7C]_F4.1_[T8G]_[A9C]_T4.1],367
13,UCUCUUUGUAUACCGUCUCUU (ssRNA) [Ic_S1_P4E.1_K4.1_C4.1_H4.1_A4.1_[T7C]_F4.1_[T8C]_[A9G]_T4.1],542
14,UCUCUUUGUAUCCCGGUCUCUU (ssRNA) [Ic_S1_P5E.1_K5.1_C5.1_H5.1_A5.1_[T6C]_[A7C]_F5.1_[T8C]_[T9G]_[A10G]_T5.1],> 2300
15,UCUCUUUGUAUUAUGUCUCUU (ssRNA) [Ic_S1_P4E.1_K4.1_C4.1_H4.1_A4.1_[A6T]_[T7A]_F4.1_[A9G]_T4.1],10.8
16,UCUCUUUGUAUAUCGAUCUCUU (ssRNA) [Ic_S1_P5E.1_K5.1_C5.1_H5.1_A5.1_[T6A]_[A7T]_F5.1_[T8C]_[T9G]_T5.1],38.9
